Here are results for 16 molecules from US20110053865A1 (Ablynx, published 2011).

The target in test [1] is T1, recombinant human IL-23 (p19/p40) (human, UniProt Q9NPF7 20-189; P29460 23-328).
T1 construct: Bought heterodimer (R&D Systems or eBioscience); biotinylated in the alpha-screens; also called hIL-23
T1 sequence (looked up) 1: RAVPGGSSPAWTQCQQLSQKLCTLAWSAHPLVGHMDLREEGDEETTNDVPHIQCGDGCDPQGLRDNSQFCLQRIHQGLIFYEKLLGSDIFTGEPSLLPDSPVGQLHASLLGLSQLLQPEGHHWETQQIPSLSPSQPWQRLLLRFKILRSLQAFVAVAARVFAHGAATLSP
T1 sequence (looked up) 2: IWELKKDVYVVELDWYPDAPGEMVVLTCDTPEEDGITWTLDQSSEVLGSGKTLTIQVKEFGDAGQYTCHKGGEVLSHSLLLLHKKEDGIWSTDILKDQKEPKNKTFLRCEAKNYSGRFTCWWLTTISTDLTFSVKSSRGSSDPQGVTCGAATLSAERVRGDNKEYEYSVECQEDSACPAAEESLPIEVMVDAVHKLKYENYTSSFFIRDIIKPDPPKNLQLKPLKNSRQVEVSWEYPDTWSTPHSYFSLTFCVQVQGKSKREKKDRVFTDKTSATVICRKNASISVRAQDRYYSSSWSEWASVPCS
Briefly: SPR Biacore, hIL-23 on chip. On the technique in general: In SPR one partner is held on a chip, and binding of the other changes the refractive index at the surface.
Experimental: Nanobody binding was assessed at one concentration (100 nM). Each Nanobody was injected for 4 minutes at a flow rate of 45 μl/min to allow binding to chip-bound antigen. Next, binding buffer without Nanobody was sent over the chip at the same flow rate to allow spontaneous dissociation of bound Nanobody.

In test [2] the target is T2, cynomolgus IL-23 (cynomolgus).
T2 construct: also called cyno IL-23; cIL-23
The test can be described thus: SPR Biacore, cyno IL-23 on chip.

In test [3] the target is T1, recombinant human IL-23 (p19/p40). The test can be described thus: SPR Biacore, hIL-23.
The target is the same in test [4]. The test can be described thus: SPR Biacore, hIL-23. This is another data set of the same source.
For test [5] the target is unchanged. Briefly: cell-based or functional assay.
Test [6] shares this target. The test can be described thus: cell-based or functional assay. The source holds these as a separate data set.
The target is the same in test [7]. Briefly: cell-based or functional assay. The source holds these as a separate data set.
Test [8] has the same target. The test can be described thus: cell-based or functional assay. This is another data set of the same source.
The target of test [9] is T2, cynomolgus IL-23. The test can be described thus: cell-based or functional assay.
For test [10], the target named is T1, recombinant human IL-23 (p19/p40). Briefly: cell-based or functional assay. The source holds these as a separate data set.
Test [11] has the same target. Briefly: cell-based or functional assay. This is another data set of the same source.
Test [12] has as its target T2, cynomolgus IL-23. The test can be described thus: cell-based or functional assay. The source holds these as a separate data set.
The target in test [13] is T1, recombinant human IL-23 (p19/p40). The test can be described thus: cell-based or functional assay. The source holds these as a separate data set.
Test [14] has the same target. The test can be described thus: cell-based or functional assay. The source holds these as a separate data set.
Test [15] has as its target T2, cynomolgus IL-23. The test can be described thus: cell-based or functional assay. The source holds these as a separate data set.
In test [16] the target is T2, cynomolgus IL-23. The test can be described thus: alpha-screen, cIL-23/IL-23R. For orientation: Alpha assays give light when donor and acceptor beads are brought close together.
Test [17] addresses T1, recombinant human IL-23 (p19/p40). Briefly: alpha-screen, hIL-23/IL-23R.
The target is the same in test [18]. Briefly: SPR Biacore 3000, hIL-23 on chip.
Experimental: Binding kinetics of the second round variants are in depth analysed by Surface Plasmon Resonance (Biacore 3000). […] Nanobody binding was assessed at one concentration (100 nM). Each Nanobody was injected for 4 minutes at a flow rate of 45 μl/min to allow binding to chip-bound antigen. Next, binding buffer without Nanobody was sent over the chip at the same flow rate to allow spontaneous dissociation of bound Nanobody.
Test [19] has the same target. The test can be described thus: SPR Biacore, hIL-23. This is another data set of the same source.
The target is the same in test [20]. Briefly: SPR Biacore, hIL-23. This is another data set of the same source.
For test [21] the target is unchanged. Briefly: SPR Biacore, eBiosc hIL-23.

Substitutions are numbered along the chain they refer to. “And” between values parts separate entries of the source, which are not always exact repeats. Equal values may be shown once. Read-outs that look alike come from different tables or passages of the source.

B1: P23IL 81A1 (VHH)
VHH: EVQLVESGGGLVQTGGSLRLSCAASVINFRLADMDWYRQALGKQRELVASISTGYRTNYADFVKGRFTISRDNAKNTVYLQMDSLKPEDTAVYYCAARDLRGLRVDYWGQGTQVTVSS
Usually koff stands for a measure of how fast the partners let go of each other. Consider B1, for which the off-rate constant (koff) in test [1] is 0.00059 s⁻¹; with cynomolgus IL-23 [2], 0.012 s⁻¹.

B2: P23IL 22D10 (VHH)
VHH: EVQLVESGGGLVQAGASLRLSCAASGRTFRSYNMGWLRQAPGKEREFVATISWNAGIPYYADSVKGRFTISRDNAKNTVYLQMNSLKPEDTAVYYCAASNSWSSSARFYDYWGQGTQVTVSS
notes: p40- Nanobody
Regarding B2, the koff in test [1] stood at 0.001 s⁻¹; with cynomolgus IL-23 [2], 0.0001 s⁻¹.

B3: P23IL81A12 (VHH)
VHH: EVQLVESGGGLVQAGGSLRLSCAASGRTLSSYAMGWFRQAPGKEREFVARISQGGTAIYYADSVKGRFTISRDNAKNTVYLQMNSLKPEDTAVYYCAKDPSPYYRGSAYLLSGSYDSWGQGTQVTVSS
notes: p19- Nanobody
By Kd is commonly meant the free concentration of one partner at which half of the binding sites on the other are occupied at equilibrium, for simple one-to-one binding. A word on the kon: it is a measure of how fast the partners come together. In the case of B3, the koff in [3] is 0.00022 s⁻¹. For the same molecule, in [4], the Kd stood at 0.38 nM, the koff amounted to 0.00021 s⁻¹ and the kon came to 560000 M⁻¹ s⁻¹.

B4: P23IL81A12-BASIC (VHH)
VHH: B3 VHH with A14P, V79L, K87R, Q123L
On to B4, for which the koff in [3] was 0.00024 s⁻¹.

B5: P23IL 84G1 (VHH)
VHH: EVQLVESGGGMVQAGGSLRLSCTASGLTDNSYAMGWFRRAPGKEREFLTGLTLSGGSTYYADSVKGRFTTSRDSQKNTVSLQMNSLKPEDTAVYYCAANRFGYGSAAYTPDNYNYWAQGTQVTVSS
notes: p40- Nanobody
B5: the results for the dissociation rate constant (koff) (in [1]; in the test with cynomolgus IL-23 [2]) were 0.0002 s⁻¹ and 0.0024 s⁻¹, respectively.

B6: P23IL-121A2 (VHH)
VHH: EVQLVESGGGLVQAGGSLRLSCAASGSIFNFNYMGWFRQAPGKEREFVAAIRWSGSSTYYADSVKGRFTISRDDAKNTVALQMNSLKPEDTAIYYCALRKGIPYSTSDRVIKGVNDYDYWGQGTQVTVSS
Consider B6, for which the “IC50, splenocyte assay (mIL-17)” value in test [5] is approximately 1.5 nM.

B7: P23IL-121A2-35GS-81G2 (bispecific antibody)
chain: EVQLVESGGGLVQAGGSLRLSCAASGSIFNFNYMGWFRQAPGKEREFVAAIRWSGSSTYYADSVKGRFTISRDDAKNTVALQMNSLKPEDTAIYYCALRKGIPYSTSDRVIKGVNDYDYWGQGTQVTVSSGGGGSGGGGSGGGGSGGGGSGGGGSGGGGSGGGGSEVQLVESGGGLVQPGGSLRLSCIASGLPFSTKSMGWFRQAPGKEREFVARISPGGTSRYYGDFVKGRFAISRDNAKNTTWLQMNSLKAEDTAVYYCASGERSTYIGSNYYRTNEYDYWGTGTQVTVSS
On to B7, for which the “IC50, splenocyte assay (mIL-17)” value in [5] was approximately 0.09 nM. Also, the “IC50, splenocyte assay, 19 pM hIL-23” value turned out to be 94 pM in test [6] and 154 pM in test [7].

B8: P23IL80D10 (VHH)
VHH: EVQLVESGGGLVQAGGSLRLSCAASGRTFEGNPMGWFRQASGKKREFVASIDWSGGITSYADSVKGRFTISRDNAKNTVYLQMNSLKPEDTAVYYCAASARFGSGSYYDLMYDYWGQGTQVTVSS
notes: p40- Nanobody
Take B8: the koff in test [1] is 9.7e-05 s⁻¹; with cynomolgus IL-23 [2], 0.000105 s⁻¹ and 7.9e-05 s⁻¹.

B9: P23IL-121A2-35GS-119G7 (bispecific antibody)
chain: EVQLVESGGGLVQAGGSLRLSCAASGSIFNFNYMGWFRQAPGKEREFVAAIRWSGSSTYYADSVKGRFTISRDDAKNTVALQMNSLKPEDTAIYYCALRKGIPYSTSDRVIKGVNDYDYWGQGTQVTVSSGGGGSGGGGSGGGGSGGGGSGGGGSGGGGSGGGGSEVQLVESGGGLVQAGGSLTLSCAVSGLTFNNYAMGWFRQVPGKEREFVAAISRSGLRTFYSDSVKGRFTISRDSAKSTVYVQMNNLKPEDTAVYFCAADRRTYYSEGPSLTDTLRYDYWGQGTQVTVSS
B9: in test [5], the “IC50, splenocyte assay (mIL-17)” value was in the range of 0.03 to 0.06 nM. The “IC50, splenocyte assay, 37 pM hIL-23” value in [8] amounted to 42 pM. Also, in test [7], the “IC50, splenocyte assay, 19 pM hIL-23” value worked out at 26 pM.

B10: P23IL119A3-35GS-81G2-GGGC-PEG40 linear (bispecific antibody)
chain: EVQLVESGGGLVQAGGSLRLSCAASGRIFSLPASGNIFNLLTIAWHRQAPGMQRELVATINSGSRTNYADSVKGRFTISRDNAQKTVYLQMNNLKPEDTAVYYCQTSGSGSPNFWGQGTQVTVSSGGGGSGGGGSGGGGSGGGGSGGGGSGGGGSGGGGSEVQLVESGGGLVQPGGSLRLSCIASGLPFSTKSMGWFRQAPGKEREFVARISPGGTSRYYGDFVKGRFAISRDNAKNTTWLQMNSLKAEDTAVYYCASGERSTYIGSNYYRTNEYDYWGTGTQVTVSSGGGC
modifications: linear mPEG40 (maleimide) on the C-terminal Cys of GGGC
As to B10, the “IC50, splenocyte assay, 19 pM hIL-23” value in test [7] and in test [11] was 7.1 pM each time. The “IC50, splenocyte assay, 3.8 pM cIL-23” value with cynomolgus IL-23 [9] and with cynomolgus IL-23 [12] was 4.7 pM each time. In test [10], the “IC50, BAF3 proliferation assay, 76 pM hIL-23” value stood at 58.5 pM. For the same molecule, the “IC50, BA/F3 proliferation assay, 76 pM hIL-23” value in test [13] was found to be 71 pM.

B11: P23IL119A3-35GS-81G2-GGGC-PEG40 branched (bispecific antibody)
chain: B10 chain
modifications: branched mPEG40 (maleimide) on the C-terminal Cys of GGGC
With B11, the “IC50, splenocyte assay, 19 pM hIL-23” value in test [7] is 5.6 pM. Moreover, in the test with cynomolgus IL-23 [9], the “IC50, splenocyte assay, 3.8 pM cIL-23” value is 5.3 pM. Moreover, in test [10], the “IC50, BAF3 proliferation assay, 76 pM hIL-23” value came to 61.2 pM.

B12: P23IL119A3v16 (VHH)
VHH: EVQLLESGGGLVQPGGSLRLSCAASGRIFSLPASGNIFNLLTIAWYRQAPGKGRELVATINSGSRTYYADSVKGRFTISRDNSKKTLYLQMNSLRPEDTAVYYCQTSGSGSPNFWGQGTLVTVSS
notes: Final humanization variant of 119A3
In general, IC50 refers to the concentration that gives 50% inhibition. Turning to B12, in [14], the “IC50, splenocyte assay hIL-23” value stood at 45.1 nM. Further, the “IC50, splenocyte assay cIL-23” value in the test with cynomolgus IL-23 [15] stood at 82.6 nM. Also, the figures for the half-inhibitory concentration (IC50) (with cynomolgus IL-23 [16]; in test [17]) were 0.7 nM and 1.24 nM, respectively. In test [18], the koff is 0.0055 s⁻¹ and 0.0019 s⁻¹.

B13: P23IL-121A2-9GS-119G7 (bispecific antibody)
chain: EVQLVESGGGLVQAGGSLRLSCAASGSIFNFNYMGWFRQAPGKEREFVAAIRWSGSSTYYADSVKGRFTISRDDAKNTVALQMNSLKPEDTAIYYCALRKGIPYSTSDRVIKGVNDYDYWGQGTQVTVSSGGGGSGGGSEVQLVESGGGLVQAGGSLTLSCAVSGLTFNNYAMGWFRQVPGKEREFVAAISRSGLRTFYSDSVKGRFTISRDSAKSTVYVQMNNLKPEDTAVYFCAADRRTYYSEGPSLTDTLRYDYWGQGTQVTVSS
In the case of B13, in [8], the “IC50, splenocyte assay, 37 pM hIL-23” value came out at 4760 pM.

B14: P23IL81G2-BASIC (VHH, name in Kabat numbering)
VHH: EVQLVESGGGLVQPGGSLRLSCIASGLPFSTKSMGWFRQAPGKGREFVARISPGGTSRYYGDFVKGRFAISRDNAKNTTWLQMNSLKAEDTAVYYCASGERSTYIGSNYYRTNEYDYWGTGTLVTVSS
notes: The sentence giving the two substitutions prints 'P23IL81A12basic' within the 81G2 paragraph
For the molecule B14, in test [19], the koff was 0.00032 s⁻¹.

B15: P23IL81G2 (VHH)
VHH: B14 VHH with G44E, L123Q
notes: p19- Nanobody
Regarding B15, in test [19], the off-rate (koff) worked out at 0.00034 s⁻¹. In test [20], the koff was 0.00039 s⁻¹ and the kon amounted to 520000 M⁻¹ s⁻¹. For the same molecule, in test [21], the Kd came out at 0.75 nM.

B16: P23IL81G2v11 (VHH)
VHH: B14 VHH with V5L, I23A, A49S, A69T, A75S, T79L, W80Y, K87R, T120Q
notes: Final humanization variant of 81G2
In the case of B16, in test [20], the off-rate constant (koff) worked out at 0.00031 s⁻¹ and the kon was determined as 610000 M⁻¹ s⁻¹. In addition, the Kd in [21] came to 0.51 nM.
